Laboratory results: PMC12802955

Target: H234A mutant of SARS-CoV-2 nsp15 with an N-terminal Strep-Tag II (SARS-CoV-2)
Test: cryo-EM structure

Substance “H234A mutant of SARS-CoV-2 nsp15 with an N-terminal Strep-Tag II (enzyme)” has a stoichiometry N of 6.
